Assay results as given in patent US20050186575A1.

Tests used:
[1] = molecular target: HR1 peptide of the SARS-CoV spike protein (SARS-CoV); test: pooled complexes heated 5 min in 1x Tricine sample buffer, Tricine SDS-PAGE
[2] = molecular target: MHV-A59 spike protein (mouse hepatitis virus strain A59) (UniProt P11224); test: cell-based or functional assay
[3] = molecular target: T1, HR1 peptide of the MHV-A59 spike protein (amino acid residues 953-1048) (mouse hepatitis virus strain A59), P11224
[4] = molecular target: T1, HR1 peptide of the MHV-A59 spike …; test: pooled complexes heated 5 min in 1x Tricine sample buffer, Tricine SDS-PAGE

T1 sequence (P11224 953-1048, tags left off): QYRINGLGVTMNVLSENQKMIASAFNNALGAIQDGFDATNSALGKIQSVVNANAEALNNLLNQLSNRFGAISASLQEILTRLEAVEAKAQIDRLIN

**Q.** Which temperature of dissociation of the complex [1] does the source give for “HR2 peptide of the SARS-CoV spike protein” here?
**A.** 70 °C

**Q.** With “HR2 peptide of the MHV-A59 spike protein (amino acid residues 1216-1254)” as the molecule, how does the EC50 of inhibition of MHV infection of LR7 cells [2] read?
**A.** 900 nM

**Q.** And the spike-mediated cell-cell fusion (luciferase activity) (fold reduction at 10 µM) [2]?
**A.** 1000

**Q.** Which results are given for GPIEGRDLSLDFEKLNVTLLDLTYEMNRIQDAIKKLNESYINLKE (modifications not checked) [HR2 peptide of the MHV-A59 spike protein (amino acid residues 1216-1254)]?
**A.** temperature of full dissociation of the complex [3]: 90 °C; temperature of partial dissociation of the complex [3]: 80 °C; temperature up to which the complex remained intact [3]: 70 °C; temperature of dissociation of the complex [4]: 90 °C
